Source: patent publication US20230399384A1 (University of Texas, published 2023)
Read-outs that look alike come from different tables or passages of the source.

Key:
[1] = target: T1, sCoV2-RBD (Fc-tagged RBD of SARS-CoV-2 S protein) (SARS-CoV-2; human, UniProt P0DTC2 319-541)
[2] = target: T2, sCoV-RBD (Fc-tagged RBD of SARS-CoV S protein) (SARS-CoV; human, UniProt P59594 306-527)
[3] = target: trimeric prefusion S protein of SARS-CoV-2 (SARS-CoV-2, UniProt P0DTC2 14-1208)
[4] = target: S protein of SARS-CoV (SARS-CoV, UniProt P59594 14-1195)
[5] = target: SARS-CoV-2 S protein on live SARS-CoV-2-mNG reporter virus (SARS-CoV-2, UniProt P0DTC2 14-1273); experiment: cell-based or functional assay
[6] = target: T3, S protein of MERS-CoV (MERS-CoV, UniProt K9N5Q8 18-1296); experiment: BLI kinetic binding (FIG. 28D)
T3 sequence: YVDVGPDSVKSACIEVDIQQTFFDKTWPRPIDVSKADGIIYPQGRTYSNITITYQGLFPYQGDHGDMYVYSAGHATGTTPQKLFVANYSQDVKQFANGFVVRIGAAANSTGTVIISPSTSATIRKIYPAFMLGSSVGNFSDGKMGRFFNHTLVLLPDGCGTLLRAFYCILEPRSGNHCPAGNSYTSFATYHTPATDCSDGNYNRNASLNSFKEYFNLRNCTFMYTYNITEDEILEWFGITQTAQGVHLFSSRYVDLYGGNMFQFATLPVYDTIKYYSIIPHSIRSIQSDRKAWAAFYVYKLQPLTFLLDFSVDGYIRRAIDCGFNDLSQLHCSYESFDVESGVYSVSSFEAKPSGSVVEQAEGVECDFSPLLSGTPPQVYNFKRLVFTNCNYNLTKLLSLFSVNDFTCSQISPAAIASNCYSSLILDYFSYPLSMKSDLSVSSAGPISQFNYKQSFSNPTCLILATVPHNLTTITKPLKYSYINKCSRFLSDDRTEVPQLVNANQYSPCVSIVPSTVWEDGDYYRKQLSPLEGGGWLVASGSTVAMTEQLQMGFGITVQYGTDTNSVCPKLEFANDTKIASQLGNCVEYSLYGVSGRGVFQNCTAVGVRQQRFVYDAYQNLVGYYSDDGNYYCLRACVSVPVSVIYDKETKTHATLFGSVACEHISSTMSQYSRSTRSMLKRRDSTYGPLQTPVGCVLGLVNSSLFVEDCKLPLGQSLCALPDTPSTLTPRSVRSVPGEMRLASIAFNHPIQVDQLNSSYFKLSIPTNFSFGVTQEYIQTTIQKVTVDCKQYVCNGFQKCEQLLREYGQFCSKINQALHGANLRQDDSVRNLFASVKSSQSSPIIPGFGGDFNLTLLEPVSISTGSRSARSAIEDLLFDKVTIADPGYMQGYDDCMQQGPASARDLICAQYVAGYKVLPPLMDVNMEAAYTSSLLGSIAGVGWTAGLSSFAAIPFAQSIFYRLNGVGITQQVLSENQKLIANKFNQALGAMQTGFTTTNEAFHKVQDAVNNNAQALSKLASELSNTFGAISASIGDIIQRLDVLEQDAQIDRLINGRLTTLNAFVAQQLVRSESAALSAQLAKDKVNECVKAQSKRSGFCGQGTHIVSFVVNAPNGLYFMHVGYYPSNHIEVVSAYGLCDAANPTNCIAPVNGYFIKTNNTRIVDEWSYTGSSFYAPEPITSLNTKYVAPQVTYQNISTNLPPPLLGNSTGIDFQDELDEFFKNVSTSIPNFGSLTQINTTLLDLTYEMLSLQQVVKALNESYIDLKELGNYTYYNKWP

[7] = target: T1, sCoV2-RBD (Fc-tagged RBD of SARS-CoV-2 …); experiment: ELISA titration on coated sCoV2-RBD
[8] = target: T2, sCoV-RBD (Fc-tagged RBD of SARS-CoV S …); experiment: BLI (Octet) blocking of ACE2 binding to sCoV-RBD
[9] = target: T1, sCoV2-RBD (Fc-tagged RBD of SARS-CoV-2 …); experiment: BLI (Octet) blocking of ACE2 binding to captured sCoV2-RBD

B1: CoV2-12 (antibody, V domains shown)
VH: QVQLVESGGGVVQPGRSLRLSCVASGFTFSSYAMQWVRQAPGKGLEYVAVVSDDGNMKFYADSVKGRFTISRDNSRNTVSLQMNSLGVEDTAVYYCARENYFWSGSIGGLDYWGQGTLVSVSS
VL: not shown
- EC50 [1]: 0.89 nM
- EC50 [2]: 3.51 nM
- Kd [3]: 10.7 nM
- Kd [4]: 9.95 nM
- NC50 (neutralisation of reporter SARS-CoV-2, Vero E6 cells) [5]: 18.2 µg/mL
- binding result [6]: no binding
- EC50 [7]: 2.11 nM
- IC50 [8]: 1.71 µg/mL
- IC50 [9]: 2.13 µg/mL
